Reference: publication doi:10.1101/2025.10.14.682086v1

B1: Mc-NDH2 (Methylococcus capsulatus str. Bath) (protein)
chain: MQRKRNEQPLPRILIIGGGAGGLELATKLGRTLGKKGKAQVTLIDAHPTHIWKPLLHEVAAGTMDVNDDELDYLAQANACHFRFVLGRMSGLDRVAKQVKLAPMTNAAGEEVIPACSYPYDILVIAVGSVCNDFGVPGVAQNCIFLDTTEEAQQFHRRLLEAYMRAHAMGGAKQPGQLDVAIVGGGATGIELSAQLHQATRLLAAYGLDNVKPSDIKIHLIEAAPRLLPELPPRLSESTVKQLLALDVQLHLGERVVEARPDGVLTHTGKFIPATLKVWAAGVKAPDFLAQTDLETNRLNQVVVRQTLQTTRDDHIFAIGDCSACPWPERNTTVPPRAQSAHQQASTAYENILRLLAGKAPVDYRYRDYGSLVSLGKYSTVGNLMGNLLGSVMIEGVIARLVYLSLYKMHQYALFGPLRVGLIMIAHFFSQKLRPKIKLH
B2: Ec-NDH2 (Escherichia coli K-12) (protein)
chain: TTPLKKIVIVGGGAGGLEMATQLGHKLGRKKKAKITLVDRNHSHLWKPLLHEVATGSLDEGVDALSYLAHARNHGFQFQLGSVIDIDREAKTITIAELRDEKGELLVPERKIAYDTLVMALGSTSNDFNTPGVKENCIFLDNPHQARRFHQEMLNLFLKYSANLGANGKVNIAIVGGGATGVELSAELHNAVKQLHSYGYKGLTNEALNVTLVEAGERILPALPPRISAAAHNELTKLGVRVLTQTMVTSADEGGLHTKDGEYIEADLMVWAAGIKAPDFLKDIGGLETNRINQLVVEPTLQTTRDPDIYAIGDCASCPRPEGGFVPPRAQAAHQMATCAMNNILAQMNGKPLKNYQYKDHGSLVSLSNFSTVGSLMGNLTRGSMMIEGRIARFVYISLYRMHQIALHGYFKTGLMMLVGSINRVIRPRLKLH

Tests used:
[1] = substrate: CC1=CC(=O)c2ccccc2C1=O; assay: purified protein, by the assay type; settings: 25.0 °C
[2] = substrate: NC(=O)C1=CN([C@@H]2O[C@H](COP(=O)(O)OP(=O)(O)OC[C@H]3O[C@@H](n4cnc5c(N)ncnc54)[C@H](O)[C@@H]3O)[C@@H](O)[C@H]2O)C=CC1; assay: purified protein, by the assay type; settings: 25.0 °C

Row | Protein | Km [1] [µM] | kcat [1] [s⁻¹] | Km [2] [µM] | kcat [2] [s⁻¹]
1 | B1 | 12.9 ± 5.4 | 3.9 ± 0.4 | 9.5 ± 5.3 | 9.08 ± 1.1
2 | B2 | 15.6 ± 8.5 | 107 ± 13.1 | 1.7 ± 1.09 | 43.6 ± 4
